Test results reported in patent US20110165064A1.
Where no end group is shown, it is not given here. [ ]: non-standard residue; d: D form. NMeE = CN[C@@H](CCC(=O)O)C(=O)O

B1: CREKA peptide (cys-arg-glu-lys-ala) (peptide)
peptide: CREKA
B2: CR(NMe)EKA (peptide)
peptide: CR[NMeE]KA

Biological target: clotted plasma proteins
Assay: binding to plasma clots; method not described, data not shown

Binder	Kd
B1	6 µM
B2	2.5 µM
